Measured values: patent US20180319875A1 (ANN AND ROBERT H LURIE CHILDREN S HOSPITAL OF CHICAGO, published 2018)

Tests used:
[1] = target: T1, Recombinant human Cripto-1 (rhCripto-1-1) (human, UniProt P13385 31-172, limits assumed); assay: SPR; the curves are labelled hrCripto 4nM, 8nM, 16nM and 32nM, so Cripto-1 is the injected molecule (the legend paragraph 37 words panel A as Nodal to Cripto)
T1 construct: Bought protein
T1 sequence (looked up): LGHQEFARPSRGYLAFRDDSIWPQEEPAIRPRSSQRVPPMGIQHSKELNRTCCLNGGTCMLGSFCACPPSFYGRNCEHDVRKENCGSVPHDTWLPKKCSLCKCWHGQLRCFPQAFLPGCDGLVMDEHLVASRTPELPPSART

[2] = target: T1, Recombinant human Cripto-1 …; assay: SPR; the curves are labelled Nodal 10nM, 25nM, 50nM and 100nM, so Nodal is the injected molecule (the legend paragraph 37 words panel B as Cripto to Nodal)
[3] = target: T1, Recombinant human Cripto-1 …; assay: SPR, average of two formats (Nodal to Cripto and Cripto to Nodal)

Kd [1]: 3.7 nM
Kd [2]: 5.8 nM
Kd [3]: ~4 nM
B1: Recombinant human Nodal protein (rhNodal, E. coli derived His238-Leu347 with an N-terminal Met) (ligand)
chain: MHHLPDRSQLCRKVKFQVDFNLIGWGSWIIYPKQYNAYRCEGECPNPVGEEFHPTNHAYIQSLLKRYQPHRVPSTCCAPVKTKPLSMLYVDNGRVLLDHHKDMIVEECGCL
notes: range 238-347; also called full length Nodal; rNodal
